Data on 17 molecules can be found in patent US20200087373A1 (UNIVERSITY OF COPENHAGEN, published 2020).

In the experiment the target is T1, human GIP receptor (human, UniProt P48546 22-466).
T1 construct: whole, on cells; also called hGIPR
T1 sequence (looked up): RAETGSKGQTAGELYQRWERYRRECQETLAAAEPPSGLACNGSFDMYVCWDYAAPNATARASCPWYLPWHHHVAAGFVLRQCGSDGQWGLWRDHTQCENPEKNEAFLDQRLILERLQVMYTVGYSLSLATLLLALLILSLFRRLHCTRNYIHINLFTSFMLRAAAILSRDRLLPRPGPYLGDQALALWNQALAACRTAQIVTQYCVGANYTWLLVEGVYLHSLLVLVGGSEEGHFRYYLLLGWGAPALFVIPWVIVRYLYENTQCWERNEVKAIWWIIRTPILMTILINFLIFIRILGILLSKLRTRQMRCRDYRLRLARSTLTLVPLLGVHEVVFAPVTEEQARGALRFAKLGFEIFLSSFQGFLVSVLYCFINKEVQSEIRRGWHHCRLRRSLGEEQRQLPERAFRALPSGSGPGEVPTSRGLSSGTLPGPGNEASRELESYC
The experiment can be described thus: 125I-hGIP competition binding, COS-7 cells expressing hGIPR.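 Also: nonspecific binding taken as radioligand bound by untransfected cells, binding buffer with or without 2% HSA.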

Ends that are not written are not given here. * marks the point of attachment. C16 diacid = O=C(O)CCCCCCCCCCCCCCC(=O)*; Stearoyl = CCCCCCCCCCCCCCCCCC(=O)*; Palmitoyl = CCCCCCCCCCCCCCCC(=O)*; Myristoyl = CCCCCCCCCCCCCC(=O)*; Lauroyl = CCCCCCCCCCCC(=O)*

By IC50 is commonly meant the concentration at which inhibition is half-maximal. A lower IC50 goes with greater potency. For the molecule EGTFISDYSIAMDK(Palmitoyl)IHQQDFVNWLLAQK-NH2 [AT105 [hGIP(3-30)NH2-C16/16]], the IC50 was determined as 522 nM and the “log IC50” value is -6.3 log M.

B1: AT120 [hGIP(5-30)NH2-C12/30] (peptide)
peptide: TFISDYSIAMDKIHQQDFVNWLLAQK(Lauroyl)-NH2
modifications: N-terminus assumed
SMILES: CCCCCCCCCCCC(=O)NCCCC[C@H](NC(=O)[C@H](CCC(N)=O)NC(=O)[C@H](C)NC(=O)[C@H](CC(C)C)NC(=O)[C@H](CC(C)C)NC(=O)[C@H](Cc1c[nH]c2ccccc12)NC(=O)[C@H](CC(N)=O)NC(=O)[C@@H](NC(=O)[C@H](Cc1ccccc1)NC(=O)[C@H](CC(=O)O)NC(=O)[C@H](CCC(N)=O)NC(=O)[C@H](CCC(N)=O)NC(=O)[C@H](Cc1c[nH]cn1)NC(=O)[C@@H](NC(=O)[C@H](CCCCN)NC(=O)[C@H](CC(=O)O)NC(=O)[C@H](CCSC)NC(=O)[C@H](C)NC(=O)[C@@H](NC(=O)[C@H](CO)NC(=O)[C@H](Cc1ccc(O)cc1)NC(=O)[C@H](CC(=O)O)NC(=O)[C@H](CO)NC(=O)[C@@H](NC(=O)[C@H](Cc1ccccc1)NC(=O)[C@@H](N)[C@@H](C)O)[C@@H](C)CC)[C@@H](C)CC)[C@@H](C)CC)C(C)C)C(N)=O
For the molecule B1, the IC50 is 1090 nM and the “log IC50” value was -6 log M. The corresponding values for EGTFISDYSIAMDKIHQQDFVNWLLAQK(Stearoyl)-NH2 [AT115 [hGIP(3-30)NH2-C18/30]] are 1520 nM and -5.8 log M.

In the case of EGTFISDYSIAMDKIHQQDFVNWLLAQK(Palmitoyl)-NH2 [AT106 [hGIP(3-30)NH2-C16/30]], the IC50 came out at 1410 nM and the “log IC50” value is -5.9 log M.

B2: AT154 [hGIP(3-30)NH2-C12/16] (peptide)
peptide: EGTFISDYSIAMDK(Lauroyl)IHQQDFVNWLLAQK-NH2
notes: printed with the same formula as AT102 but a different ID and different values
For the molecule B2, the IC50 was 27 nM and the “log IC50” value is -8 log M.

B3: AT159 [hGIP(3-30)NH2[K16R; H18K; K30R]-C16diacid/18] (peptide)
peptide: EGTFISDYSIAMDRIK(C16 diacid)QQDFVNWLLAQR-NH2
modifications: N-terminus assumed
SMILES: CC[C@H](C)[C@H](NC(=O)[C@H](CO)NC(=O)[C@H](Cc1ccc(O)cc1)NC(=O)[C@H](CC(=O)O)NC(=O)[C@H](CO)NC(=O)[C@@H](NC(=O)[C@H](Cc1ccccc1)NC(=O)[C@@H](NC(=O)CNC(=O)[C@@H](N)CCC(=O)O)[C@@H](C)O)[C@@H](C)CC)C(=O)N[C@@H](C)C(=O)N[C@@H](CCSC)C(=O)N[C@@H](CC(=O)O)C(=O)N[C@@H](CCCNC(=N)N)C(=O)N[C@H](C(=O)N[C@@H](CCCCNC(=O)CCCCCCCCCCCCCCC(=O)O)C(=O)N[C@@H](CCC(N)=O)C(=O)N[C@@H](CCC(N)=O)C(=O)N[C@@H](CC(=O)O)C(=O)N[C@@H](Cc1ccccc1)C(=O)N[C@H](C(=O)N[C@@H](CC(N)=O)C(=O)N[C@@H](Cc1c[nH]c2ccccc12)C(=O)N[C@@H](CC(C)C)C(=O)N[C@@H](CC(C)C)C(=O)N[C@@H](C)C(=O)N[C@@H](CCC(N)=O)C(=O)N[C@@H](CCCNC(=N)N)C(N)=O)C(C)C)[C@@H](C)CC
On to B3, for which the IC50 amounted to 18 nM.

B4: AT163 [hGIP(3-30)NH2[H18K]-C16/16] (peptide)
peptide: EGTFISDYSIAMDK(Palmitoyl)IKQQDFVNWLLAQK-NH2
modifications: N-terminus assumed
SMILES: CCCCCCCCCCCCCCCC(=O)NCCCC[C@H](NC(=O)[C@H](CC(=O)O)NC(=O)[C@H](CCSC)NC(=O)[C@H](C)NC(=O)[C@@H](NC(=O)[C@H](CO)NC(=O)[C@H](Cc1ccc(O)cc1)NC(=O)[C@H](CC(=O)O)NC(=O)[C@H](CO)NC(=O)[C@@H](NC(=O)[C@H](Cc1ccccc1)NC(=O)[C@@H](NC(=O)CNC(=O)[C@@H](N)CCC(=O)O)[C@@H](C)O)[C@@H](C)CC)[C@@H](C)CC)C(=O)N[C@H](C(=O)N[C@@H](CCCCN)C(=O)N[C@@H](CCC(N)=O)C(=O)N[C@@H](CCC(N)=O)C(=O)N[C@@H](CC(=O)O)C(=O)N[C@@H](Cc1ccccc1)C(=O)N[C@H](C(=O)N[C@@H](CC(N)=O)C(=O)N[C@@H](Cc1c[nH]c2ccccc12)C(=O)N[C@@H](CC(C)C)C(=O)N[C@@H](CC(C)C)C(=O)N[C@@H](C)C(=O)N[C@@H](CCC(N)=O)C(=O)N[C@@H](CCCCN)C(N)=O)C(C)C)[C@@H](C)CC
The molecule B4 registered an IC50 of 205 nM.

B5: AT160 [hGIP(3-30)NH2[H18K]-C18/18] (peptide)
peptide: EGTFISDYSIAMDKIK(Stearoyl)QQDFVNWLLAQK-NH2
modifications: N-terminus assumed
SMILES: CCCCCCCCCCCCCCCCCC(=O)NCCCC[C@H](NC(=O)[C@@H](NC(=O)[C@H](CCCCN)NC(=O)[C@H](CC(=O)O)NC(=O)[C@H](CCSC)NC(=O)[C@H](C)NC(=O)[C@@H](NC(=O)[C@H](CO)NC(=O)[C@H](Cc1ccc(O)cc1)NC(=O)[C@H](CC(=O)O)NC(=O)[C@H](CO)NC(=O)[C@@H](NC(=O)[C@H](Cc1ccccc1)NC(=O)[C@@H](NC(=O)CNC(=O)[C@@H](N)CCC(=O)O)[C@@H](C)O)[C@@H](C)CC)[C@@H](C)CC)[C@@H](C)CC)C(=O)N[C@@H](CCC(N)=O)C(=O)N[C@@H](CCC(N)=O)C(=O)N[C@@H](CC(=O)O)C(=O)N[C@@H](Cc1ccccc1)C(=O)N[C@H](C(=O)N[C@@H](CC(N)=O)C(=O)N[C@@H](Cc1c[nH]c2ccccc12)C(=O)N[C@@H](CC(C)C)C(=O)N[C@@H](CC(C)C)C(=O)N[C@@H](C)C(=O)N[C@@H](CCC(N)=O)C(=O)N[C@@H](CCCCN)C(N)=O)C(C)C
In turn, B5 returned an IC50 of 49 nM. On to Myristoyl-EGTFISDYSIAMDKIHQQDFVNWLLAQK-NH2 [AT110 [hGIP(3-30)NH2-C14/3]], for which the IC50 came out at 55.5 nM and the “log IC50” value is -7.3 log M.

B6: AT123 [hGIP(5-30)NH2-C14/30] (peptide)
peptide: TFISDYSIAMDKIHQQDFVNWLLAQK(Myristoyl)-NH2
modifications: N-terminus assumed
SMILES: CCCCCCCCCCCCCC(=O)NCCCC[C@H](NC(=O)[C@H](CCC(N)=O)NC(=O)[C@H](C)NC(=O)[C@H](CC(C)C)NC(=O)[C@H](CC(C)C)NC(=O)[C@H](Cc1c[nH]c2ccccc12)NC(=O)[C@H](CC(N)=O)NC(=O)[C@@H](NC(=O)[C@H](Cc1ccccc1)NC(=O)[C@H](CC(=O)O)NC(=O)[C@H](CCC(N)=O)NC(=O)[C@H](CCC(N)=O)NC(=O)[C@H](Cc1c[nH]cn1)NC(=O)[C@@H](NC(=O)[C@H](CCCCN)NC(=O)[C@H](CC(=O)O)NC(=O)[C@H](CCSC)NC(=O)[C@H](C)NC(=O)[C@@H](NC(=O)[C@H](CO)NC(=O)[C@H](Cc1ccc(O)cc1)NC(=O)[C@H](CC(=O)O)NC(=O)[C@H](CO)NC(=O)[C@@H](NC(=O)[C@H](Cc1ccccc1)NC(=O)[C@@H](N)[C@@H](C)O)[C@@H](C)CC)[C@@H](C)CC)[C@@H](C)CC)C(C)C)C(N)=O
Take B6: the IC50 stood at 674 nM and the “log IC50” value is -6.2 log M.

EGTFISDYSIAMDK(Lauroyl)IHQQDFVNWLLAQK-NH2 [AT102 [hGIP(3-30)NH2-C12/16]]: the IC50 was determined as 59.1 nM and the “log IC50” value is -7.2 log M. Regarding EGTFISDYSIAMDKIHQQDFVNWLLAQK(Lauroyl)-NH2 [AT103 [hGIP(3-30)NH2-C12/30]], the IC50 came out at 4710 nM and the “log IC50” value is -5.3 log M. The corresponding values for Palmitoyl-EGTFISDYSIAMDKIHQQDFVNWLLAQK-NH2 [AT104 [hGIP(3-30)NH2-C16/3]] are 75 nM and -7.1 log M. For Stearoyl-EGTFISDYSIAMDKIHQQDFVNWLLAQK-NH2 [AT113 [hGIP(3-30)NH2-C18/3]], in that order: 41400 nM and -4.4 log M.

B7: AT125 [hGIP(5-30)NH2-C16/16] (peptide)
peptide: TFISDYSIAMDK(Palmitoyl)IHQQDFVNWLLAQK-NH2
modifications: N-terminus assumed
SMILES: CCCCCCCCCCCCCCCC(=O)NCCCC[C@H](NC(=O)[C@H](CC(=O)O)NC(=O)[C@H](CCSC)NC(=O)[C@H](C)NC(=O)[C@@H](NC(=O)[C@H](CO)NC(=O)[C@H](Cc1ccc(O)cc1)NC(=O)[C@H](CC(=O)O)NC(=O)[C@H](CO)NC(=O)[C@@H](NC(=O)[C@H](Cc1ccccc1)NC(=O)[C@@H](N)[C@@H](C)O)[C@@H](C)CC)[C@@H](C)CC)C(=O)N[C@H](C(=O)N[C@@H](Cc1c[nH]cn1)C(=O)N[C@@H](CCC(N)=O)C(=O)N[C@@H](CCC(N)=O)C(=O)N[C@@H](CC(=O)O)C(=O)N[C@@H](Cc1ccccc1)C(=O)N[C@H](C(=O)N[C@@H](CC(N)=O)C(=O)N[C@@H](Cc1c[nH]c2ccccc12)C(=O)N[C@@H](CC(C)C)C(=O)N[C@@H](CC(C)C)C(=O)N[C@@H](C)C(=O)N[C@@H](CCC(N)=O)C(=O)N[C@@H](CCCCN)C(N)=O)C(C)C)[C@@H](C)CC
With B7, the IC50 was 714 nM and the “log IC50” value is -6.1 log M.

B8: AT148 [hGIP(3-30)NH2-C12/3] (peptide)
peptide: Lauroyl-EGTFISDYSIAMDKIHQQDFVNWLLAQK-NH2
notes: printed with the same formula as AT101 but a different ID and different values
Consider B8, for which the IC50 is 24 nM and the “log IC50” value is -8 log M. The corresponding values for EGTFISDYSIAMDKIHQQDFVNWLLAQK(Myristoyl)-NH2 [AT112 [hGIP(3-30)NH2-C14/30]] are 451 nM and -6.3 log M.
